Reference: IntAct's records for PubMed 26416881

B1: MICOS complex subunit MIC19 (Saccharomyces cerevisiae), P43594 (parent)
chain: MGSNTSKVGAGAEKQQVYTPLTQIDFSQSLVSQLDSSKESDYVTKQNAEKFIEKKVSQRLSNLEVETLKKFEDTLNNSLLSDDDKDAVDGISSSSLNNQIESLNKKLTLFDQLELQKLEKYGGAKGKSDKKTDNGSISIKAKLTECLLANKGKPLNCYEEMEEFKKLVMG
partner: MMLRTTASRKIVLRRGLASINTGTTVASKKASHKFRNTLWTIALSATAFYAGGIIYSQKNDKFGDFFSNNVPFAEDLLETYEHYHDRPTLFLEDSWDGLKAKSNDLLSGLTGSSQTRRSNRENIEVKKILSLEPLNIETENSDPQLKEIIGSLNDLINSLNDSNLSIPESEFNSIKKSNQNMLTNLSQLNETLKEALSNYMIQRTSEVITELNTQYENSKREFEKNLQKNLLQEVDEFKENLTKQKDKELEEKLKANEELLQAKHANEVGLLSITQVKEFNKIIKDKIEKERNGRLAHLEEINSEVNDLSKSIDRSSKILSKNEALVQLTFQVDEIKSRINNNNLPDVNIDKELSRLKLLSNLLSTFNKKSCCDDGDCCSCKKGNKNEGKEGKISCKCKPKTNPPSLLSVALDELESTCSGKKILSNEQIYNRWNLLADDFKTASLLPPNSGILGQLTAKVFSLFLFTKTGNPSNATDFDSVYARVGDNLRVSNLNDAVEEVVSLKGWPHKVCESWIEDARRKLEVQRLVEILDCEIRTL

Variants of: B1
Details: with mic60_yeast MIC60, P36112

Variant	effect of a mutation on the interaction
MGSNTSKVGAGAEKQQVYTPLTQIDFSQSLVSQLDSSKESDYVTKQNAEKFIEKKVSQRLSNLEVETLKKFEDTLNNSLLSDDDKDAVDGISSSSLNNQIESLNKKLTLFDQLELQKLEKYGGAKGKSDKKTDNGSISIKAKLTESLLANKGKPLNCYEEMEEFKKLVMG [C146S]	with no effect
MGSNTSKVGAGAEKQQVYTPLTQIDFSQSLVSQLDSSKESDYVTKQNAEKFIEKKVSQRLSNLEVETLKKFEDTLNNSLLSDDDKDAVDGISSSSLNNQIESLNKKLTLFDQLELQKLEKYGGAKGKSDKKTDNGSISIKAKLTECLLANKGKPLNSYEEMEEFKKLVMG [C157S]	decreasing interaction strength
